Experimental data from a protein production outcome set (Wang et al. 2014).

test: label from the status in PepcDB records

| Sequence | protein production |
| --- | --- |
| MSIYKDINIASAKPSLKERKNIKHYALDHLNIDEKNNAPLFKTLLEDAMRVSSKEILLIVGGSSFYLKSILEGLSRMPKLSGEEVVKIEREIATLSNPYIFLKSIDPNMAFKIHPNDTYRTHKALEIFYATCTPPSEYFKANPKKPFEHAISLFALSIEKSALHNNIKRRTKNMLHSGLVEEIKALYTQYPKDSQPFKAIGVKESVLFLEKRLTLKELEEAITSNTMKLAKRQNTFNKTQFNNLYVGSAEEVRHAILKHSKSGIKG | failed |
| MSKAKAPINTDELKQKYGRVYEIRIEGLEYENGEEAEFVFYFTRPKVSDISRFTKELNSKPDMAMKNLTFSCIVPEQEEELRQAAEEFPGLTFNTASRLMEIVGASAATSLKKL | not failed |
| MSKDSNKIIEQSREIGISIIMPLYNVEEVILETLESIHEQTFDSYEVLLIDDGSTDKTIEIVTEYIKDKPRFKLYTQPNGGPASARNHGLRLAIGMYICFVDSDDILPNYSLQLMYDGAISTGAKLITGATKRFNSEGEWFIPMHIQYNIAKPGMKTLLKNPELFYSIGPCAKLYHHSLIDGVFFPENIRYGEDQPFVLHALLQAKDIYTVEKVVYYYRLRDGESQSLTQSVDKDPIRILKSVFQIFDYGEEELKKNNTDYELEHHHHHH | failed |
| MSKENPLKFLGIGSAFNPNYNNTSAYFELEDNLFLIDCGGGIFNSLLSLKLLEKYLHLNVLITHTHPDHIASLGQLILYCYYQLNKKITLIFPQSEIILNLLDYMGIRNDIYILKTPQDFVNYLSKLTVISLEQVHVNELPCFGYLIYLNNVTFYYSGDSKSIPLYILTKFLEGEIDFLFQDTCSENHNHHPHLSIKELSEQIPPSKRKQVYCMHIDEKFDVNLAKNLGFNIPQEIIVERDAK | failed |
| MSKGTLFDKVWDLHTVGTLPSGLTQLFIGLHLVHEVTSPQAFAMLRERGLKVLFPERTVATVDHIVPTENQARPFVDRLAEEMIQALEQNCQENNITFYNIGSGNQGIVHVIAPELGLTQPGMTIACGDSHTSSHGAFGAIAFGIGTSQVRDVLASQTLSLSKLKVRKIEVNGTLNPGVYAKDVILHIIRTLGVKGGVGYAYEYAGTTFEQMNMEERMTVCNMAIEGGARCGYVNPDQVTYDYLQGRDFAPQGADWEKAVAWWESIKSDADAEYDDVIVFNAADIPPTVTWGITPGQGIGVNQLIPQPEELLEEDRFVAEEAYRYMDLYPGQPIKGTKIDVCFIGSCTNGRLSDLQEAAKIAKGRHVAEGVKAFVVPGSERVKKAAEAEGLDKIFEAAGFEWREPGCSMCLAMNPDKLEGRQISASSSNRNFKGRQGSASGRTLLMSPAMVATAAIQGEVADVRELL | not failed |
| MSKHQRPRILITGAAGALAQQVIRRLRESCDLVAVDFREQVYLGDDIPSYCIDFNKRVFEDLFRRYEFDGVIHLGRILSSQLTRMRRYNANVLGTQKLLDLSHKYGIRRVIVLSTYHVYGAVAYNPALIDESAPLKSAGLSADLVDSVELENLANIYLWRYPELNITILRPCNIVGPGVRNTMSTLLSSERAPVLAGFSPMMQFIHIDDMADAIVAAWAKPVKGVFNVAPQDWVAYQHALKLCGCKTIPIPSIPPSVPKAIARVLNLRSFPPYLMAFFKYPVVIDGRAFAREFGFEPKRPLKEIFRYYRDNKKPV | failed |
| MSKIWSKEETLWSFALYGTAVGAGTLFLPIQLGSAGAIVLFITALVAWPLTYWPHKALSQFILSANIAPGTGITGAVNHYYGKKIGNLITGLYFLAFFVVVLIYAVAITNSLAEQVAHRTPMTPGLRALLSLGVVLVLNLIFLMGRQVTIKVMGFLVFPLIACFLFLSLYLIRDWHPEHLTSQMQFSPQTLHQVWISIPVMVFAFSHTPIISTFAIDQQEKHGDLAMGKCKKIMKVAYTIICASVLFFVFSCLLAIPATYIETARDQGVTILSALSMVPGAPGWLAVTGIIVAVVAMSKSFLGTYFGVIEGASEIVKSSLGLLGVRKSRAFNRAMSILLVSAFTFAVCFINPNAISMIYAISGPLIAMILFIMPTLSTWLIPALKPYRSVGNAITLVVGLLCVSVMFFG | failed |
| MSKKRIIALILAVVIVLGGIIMSSISAVVSSLFSESTTSDTNPFTEKVEKEGNSSKRIAHLTLNGEITEGTGGGLFGGEGYNHEAFLKQLDNVKKDDSIKGVLLTVNTPGGGTYPSDEIYEKIKEIKQKHKKIYVHMDSMAASGGYYISAPADKIYAGPQTMTGSIGVIMSSIDYSGLQKNLGIKQNVIKSGEHKDILSSSREMTSEERDILQSVLDDSFNRFVNIVKDGRDMPESKVRKLADGRIYSAQQAKSNGLIDEIGYEDQTVKALKKDINAKDAEVFEYSTDGGWFSSMYNVKSSISQFTNEIKDVKSIITNDTKTEPMYLYEGLEHHHHHH | failed |
| MSKLAQIVQKLKKQGIEAAVLSDPVSINYLTGFYSDPHERLMFLFLFADQEPLLFLPELDALRAKSILDISVTGYLDFENPLEKIKTLLPKTNYSKIALEFDNLNVTKFKGLETIFSGQFTNLTPLINRMRLIK | failed |
| MSKLDLHQMTTQDLVALFAKVTVEQDDALLGNQISRFNRLFGVMAEIADELKARDGDQRTALLSLFEYPNMQVRLQAAKLTLAVAPVKAREQLEAIVSSKWFPQAGDAGMCLDLLDDGTFKPK | not failed |
| MSKLFPGEVFANTADFDTGIRQLLPRYDEMLEVICRCLPLTSRRILDLGCGTGELSLKILQRCPDAQVIALDYSPRMLKFAQNKIVASGYKERWTGLQADFGDWAINPETLNIGNEFDACVSSLAIHHLYDEMKLQLFQRIAASLTPNGCFWNADPILPESPTLAEIYQAAREEWVSEQGSNFTEVRAKVGDSSPQGYSNPDQLATLDTHLQMLTKSGFTTVAVPWKYYGLAVFGGWVKLEHHHHHH | not failed |
| MSKLTLGSYPHMLGFEQLERLLERSAKSGNEGYPPYNIEQTSETSYRITLAVAGFAEADLSITVEDRQLVIRGRQSDDSEGRVFLHRGIAARQFQRMFVLAEGVEVGEAVMENGLLHVDLSRAVPQSVVQTINIRKG | failed |
| MSKNNTLSMSPNFFVSGGVLLAIFTLIHLLYAGLIRPAAEVAMAEKGTEALTAFSVIFKDVEQQVCISLMLFCLFLMLYKLWRLIDEEEIYSRDLLESYDKSEALDVDAALNDLESSAYKETPAYSTWINCIRRFKNTKNVQHAADTIESSVDNIAIQLESGNNMIRYIIWAIPSIGFVGTVRGIGSALAQADKALDGDIAGMTASLGVAFNSTLVALFISLILMLFMHLLNSRQDKMVIRTQESCEKHLLSHLHS | failed |
| MSKRMRPSWYRDSPPKQLPYAFVPEEDDDVVILPQVDNSALLGRLQLSLVGRMFHQGGRSTEALLSFLPNIWDVEGRVRGVSLGDSRFQFFFESETDLQKVLNKRPCHFSKWSFALERWKSHIGISFPDTMTFWIKTEGIPTEFWEEEVLRNFGASIGAVRRVDSSKGRLQISVKADVPFRFNKNAQLPNGEVVKVKLFYEKLF | failed |
| MSKVALFAGGDLSYISRDFDYFVGIDRGSLFLLENGLPLNMAVGDFDSVSQKAFTDIKEKAELFITAHPEKNDTDTELALKEVFARFPEAEVTIFGAFGGRMDHLLSNIFLPSDPGIAPFMAQIALRDQQNMITYRPAGQHLIHQEEGMTYVAFMAEGEADLTITGAKFELTQDNFFKKKIYSSNAFIHQPITVSLPSGYLIIIQSKDWSLEHHHHHH | not failed |
| MSKVFICAAIPDEQAIKEEGAVAVATAIEAGDERRARAKFHWQFLEHYPAAQDCAYKFLVCEDKPGIPRPALDSWDAEYMQENRWDEGAASFVPVETESDPMNVAFDKLAPEVQNAVMVKFDTCENITVDMVISAQELLQEDMATFDGHIVEALMKMPEVNAMYPELKLHAIGWVKHKCKPGAKWPEIQAEMRIWKKRREGERKETGKYTSVVDLARARVHRQHTENSAEKIPPVTAVIRREYKQTWKTLDDELAYALWPGDVDAGNIDGSIHRWAKNEVIDNDREDWKRISASMRKQPDALRYDRQTIFGLVRERPIDIHKDPVALNKYITEYLTTKGVFEDEGTNQSATDTLSSPVPETDAVETAIPDNEKTECKVEVEPSVEREGPFYFLFTDKDGEKYGRANKLSGLDKALAAGATEITKEEYFARKNGTYTGLPQNANTAQNSEQPEPVKVTADEVKKIMQAANISQPDANQLLAASRGEFVAGISDPNDPKWVKGIETRDSVNQNQQETEQNDQKAEQNSPNTQQNEPETKQPEPVAQQEPEKVCTACGQTGGGNCPDCGAVMGDATYQETFDEEYQVEVQEDDPEEMEGAEHPHKENTDGNQHHDSDNETGETADHSIKVNGHQEITSTSRTCDHLMIDLETMGKNPDAPIISIGAIFFDPQTGDMGPEFSKTIDLETAGGVIDRDTIKWWLKQSREAQSAIMTDEIPLDDALLQLREFIDENSGEFFVQVWGNGANFDNTILRRSYERQGIPCPWRYYNDRDVRTIVELGKAIDFDARTAIPFEGERHNALDDARYQAKYVSVIWQKLIPNQADF | failed |
| MSKVLVLKSSILAGYSQSGQLTDYFIEQWREKHVADEITVRDLAANPVPVLDGELVGAMRPGDAPLTPRQQDALALSDELIAELKAHDVIVIAAPMYNFNIPTQLKNYFDLIARAGITFRYTEKGPEGLVTGKRAVVLSSRGGIHKDTPTDLIAPYLKVFLGFIGITDVNFVFAEGIAYGPEVAAKAQADAKAAIDSVVAA | not failed |
| MSKVLVLKSSILAGYSQSNQLSDYFVEQWREKHSADEITVRDLAANPIPVLDGELVGALRPSDAPLTTRQQEALALSDELIAELKAHDVIVIAAPMYNFNISTQLKNYFDLVARAGVTFRYTENGPEGLVTGKKAIVITSRGGIHKDGPTDLVTPYLSTFLGFIGITDVKFVFAEGIAYGPEMAAKAQSDAKAAIDSIVAA | failed |
| MSLAAARGGVGAGPDVRPVHGVHARMAEKMTLSHKEIPTAKASVEVICAELLRLRDRFVSAAPEITPFALTLRLLVIALKHNVILNSTWVDSGEGPQVHVHRGVHLGFGAATERGLLVPVVTDAQDKNTRELASRVAELITGAREGTLTPAELRGSTFTVSNFGALGVDDGVPVINHPEAAILGLGAIKPRPVVVGGEVVARPTMTLTCVFDHRVVDGAQVAQFMCELRDLIESPETALLDLEGHHHHHH | not failed |
| MSLADTVRMGTEGAYPPYNFINDAGEVDGFERELGDELCKRAGLTCEWVKNDWDSIIPNLVSGNYDTIIAGMSITDERDEVIDFTQNYIPPTASSYVATSDGADLSGIVAAQTATIQAGYIAESGATLVEFATPEETIAAVRNGEADAVFADRDYLVPIVAESGGELMFVGDDVPLGGGVGMGLRESDGELRGKFDAAITSMKEDGTLNTMIKKWFGEDAAVYEEGHHHHHH | not failed |
| MSLAEHKGDVMIVDDDAHVRIAVKTILSDAGFHIISADSGGQCIDLLKKGFSGVVLLDIMMPGMDGWDTIRAILDNSLEQGIAIVMLTAKNAPDAKMIGLQEYVVDYITKPFDNEDLIEKTTFFMGFVRNQTGNEGHHHHHH | not failed |
| MSLAPCGLVPSARQLEWYNREMIAFFHFGINTFEEYVNEGDGKASTAIFNPTALDCRQWMQTLKAAGIPAAILTAKHADGFCLWPSKYTDYSVKNAAWKNGKGDVVREFVDACEEYGLKAGIYLGPHDRHEHLSPLYTTERYKEYYAHQLGELMSDYGKIWETWWDGAGADELTTPVYRHWYKIVREKQPDCVIFGTKNSYPFADVRWMGNEAGEAGDPCWATTDSVAIRDEAQYYKGLNEGMLDGDAYIPAETDVSIRPSWFYHAEEDSRVKSVRELWDIYCTSVGRNSVLLLNFPPDRRGLIHSTDSLHAALLKQGIDETFSTNLLRGAKVKATNVRGAKYSPEKMLDNEKNTYFAGKDGEVKADIIFTLPKTIEFDCLMIEEVIELGHRTTKWSVEYTVDGKNWITIPEATDKQAIGHKWIVRLAPVKAKQVRLRIQDGKACPAIHTFGVYKQSPVFKEGHHHHHH | not failed |
